In IntAct's records for PubMed 10921873:

B1: Coatomer subunit alpha (Saccharomyces cerevisiae), P53622 (parent)
chain: MKMLTKFESKSTRAKGIAFHPSRPWVLVALFSSTIQLWDYRMGTLLHRFEDHEGPVRGLDFHPTQPIFVSAGDDYTIKVWSLDTNKCLYTLTGHLDYVRTVFFHRELPWIISASDDQTIRIWNWQNRKEIACLTGHNHFVMCAQFHPTDDLIVSASLDETIRIWDISGLRKRHSAPGTSSFEEQMSAQQNLLDGSLGDCVVKFILEGHTRGVNWASFHPTLPLIVSGSDDRQVKLWRMSATKAWEVDTCRGHTNNVDSVIFHPHQNLIISVGEDKTLRVWDLDKRTPVKQFKRENDRFWLIAAHPHINLFGAAHDSGIMVFKLDRERPCSFIHQNQLFFVNAEKQIQSFNFQKRVASLPYASLKGIGQPWDAFRSISYNPSQHSVLVNEANGKFALVILPKQPVGAVEPTSVTQDTGNFATFVGRNRFVVYNKNTESVEVRSLENKVTRNIKVEETVRTIVAAGPGSVLVIHPREVILYDVQQGKKVSQLAVKNVKYVSWSLDGQYVALMSKHTITLATKKLELINSMHETIRIKSAAWDETGVLIYSTLNHIRYSLLNGDRGIIKTLEKTLYITKVQGKLVYCLNREGEIEILTIDPTEYRFKKALVNKNFPEVLRLIKDSNLVGQNIISYLQKSGYPEIALQFVQDPHIRFDLALEYGNLDVALDEAKKLNDSSTWERLIQEALAQGNASLAEMIYQTQHSFDKLSFLYLVTGDVNKLSKMQNIAQTREDFGSMLLNTFYNNSTKERSSIFAEGGSLPLAYAVAKANGDEAAASAFLEQAEVDEQDVTLPDQMDASNFVQRPVISKPLEKWPLKEAELSYFEKAVLGQIDDLTIDDETPAVNTTQEQEEPLGEENFNDEDIGEDEGAWDLGDEDLDVGEELPEEVEQGEITSPAQEVETAIWIKNSKLPAVLVAAGAFDAAVQALSKQVGVVKLEPLKKYFTNIYEGCRTYIPSTPCELPAQLGYVRAYDDTVSEDQILPYVPGLDVVNEKMNEGYKNFKLNKPDIAIECFREAIYRITLLMVDDAEDEKLAHKILETAREYILGLSIELERRSLKEGNTVRMLELAAYFTKAKLSPIHRTNALQVAMSQHFKHKNFLQASYFAGEFLKIISSGPRAEQARKIKNKADSMASDAIPIDFDPYAKFDICAATYKPIYEDTPSVSDPLTGSKYVITEKDKIDRIAMISKIGAPASGLRIRV
partner: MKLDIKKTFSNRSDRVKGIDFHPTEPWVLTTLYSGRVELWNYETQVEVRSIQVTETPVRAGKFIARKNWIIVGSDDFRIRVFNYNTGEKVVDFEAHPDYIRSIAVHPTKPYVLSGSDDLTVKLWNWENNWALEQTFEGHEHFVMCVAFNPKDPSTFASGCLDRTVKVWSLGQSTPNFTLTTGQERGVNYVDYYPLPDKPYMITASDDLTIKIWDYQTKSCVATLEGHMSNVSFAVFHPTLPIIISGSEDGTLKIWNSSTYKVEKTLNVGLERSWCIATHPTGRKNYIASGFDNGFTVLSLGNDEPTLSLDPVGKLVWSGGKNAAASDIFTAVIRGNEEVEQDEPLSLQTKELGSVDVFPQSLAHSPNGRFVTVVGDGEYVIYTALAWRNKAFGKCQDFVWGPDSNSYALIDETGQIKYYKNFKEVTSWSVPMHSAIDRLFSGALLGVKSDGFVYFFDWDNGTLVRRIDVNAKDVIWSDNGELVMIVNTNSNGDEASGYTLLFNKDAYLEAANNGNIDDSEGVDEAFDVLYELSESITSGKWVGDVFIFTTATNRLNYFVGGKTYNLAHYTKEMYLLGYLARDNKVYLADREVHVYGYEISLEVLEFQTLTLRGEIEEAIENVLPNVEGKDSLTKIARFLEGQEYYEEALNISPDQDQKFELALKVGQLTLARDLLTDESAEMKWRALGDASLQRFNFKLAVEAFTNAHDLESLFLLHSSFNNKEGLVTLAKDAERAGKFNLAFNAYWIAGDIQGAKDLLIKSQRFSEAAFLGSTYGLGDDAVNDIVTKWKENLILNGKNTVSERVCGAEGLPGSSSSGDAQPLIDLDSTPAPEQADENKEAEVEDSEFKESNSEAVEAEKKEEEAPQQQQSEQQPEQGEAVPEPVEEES

Variants of: B1
Settings: with copb2_yeast SEC27, P41811

Variant	effect of a mutation on the interaction
S1188F	decreasing interaction
